For this assay, the target named is human S100A9 protein (human) (UniProt P06702). Put plainly: other fluorescence titration; intrinsic tryptophan fluorescence of 2 uM S100A9; S100A12 added at 0.4-7 uM; excitation 295 nm, emission read at 345 nm; one binding site model.

One may read the Kd as the constant that tells how readily two partners part at equilibrium.

B1: human S100A12 protein (natural protein)
chain: MTKLEEHLEGIVNIFHQYSVRKGHFDTLSKGELKQLLTKELANTIKNIKDKAVIDEIFQGLDANQDEQVDFQEFISLVAIALKAAHYHTHKE
As for B1, the dissociation constant Kd was found to be 1300 nM.

For the origin of these results see publication PMC6001950.
